Molecular target: Alkaline Phosphatase, Germ Cell (ALPG) expressed on K562-ALPG and K562-ALPG/MSLN target cells (UniProt P10696)
Sequence (P10696 20-503): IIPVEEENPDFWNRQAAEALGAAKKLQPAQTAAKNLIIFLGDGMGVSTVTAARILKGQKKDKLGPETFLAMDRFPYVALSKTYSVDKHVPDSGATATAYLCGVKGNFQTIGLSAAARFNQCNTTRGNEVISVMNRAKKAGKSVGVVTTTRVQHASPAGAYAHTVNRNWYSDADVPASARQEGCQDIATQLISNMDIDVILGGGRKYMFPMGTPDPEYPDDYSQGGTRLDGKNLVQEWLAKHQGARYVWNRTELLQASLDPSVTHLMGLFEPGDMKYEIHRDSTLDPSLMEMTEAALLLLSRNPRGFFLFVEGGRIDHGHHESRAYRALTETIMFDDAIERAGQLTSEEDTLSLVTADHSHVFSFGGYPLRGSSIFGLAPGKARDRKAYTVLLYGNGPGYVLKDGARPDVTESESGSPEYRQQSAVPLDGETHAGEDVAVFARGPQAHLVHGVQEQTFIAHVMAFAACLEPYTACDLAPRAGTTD

% of LG1 T cells CAR+ PrimeR+ (upper right quadrant) after 72 h with K562 ALPG high, 1:1: 0.043%
% of LG1 T cells CAR+ PrimeR+ (upper right quadrant) after 72 h with K562 ALPG low, 1:1: 0.25%
% of LG1 T cells CAR+ PrimeR+ (upper right quadrant), T cells alone, no ALPG cells (baseline): 1.11%
% of LG1 T cells CAR+ PrimeR- (upper left quadrant) after 72 h with K562 ALPG high, 1:1: 5.29%
% of LG1 T cells CAR+ PrimeR- (upper left quadrant) after 72 h with K562 ALPG low, 1:1: 5.88%
% of LG1 T cells CAR+ PrimeR- (upper left quadrant; FLAG APC vs myc PE), T cells alone, no ALPG cells (baseline): 0.12%
% of LG1 T cells PrimeR+ CAR- (lower right quadrant) after 72 h with K562 ALPG high, 1:1: 0.043%
% of LG1 T cells PrimeR+ CAR- (lower right quadrant) after 72 h with K562 ALPG low, 1:1: 0.44%
% of LG1 T cells PrimeR+ CAR- (lower right quadrant), T cells alone, no ALPG cells (baseline): 12%
B1: Myc-tag ALPG/P priming receptor: anti-ALPG/P scFv-CD8α hinge-Notch1 TMD-Notch1 STS-HNF1aDBD-p65 activation domain (protein, not shown: small tags and cut ends)
chain: DIQMTQSPSSLSASVGDRVTITCRASENIYSYVAWYQQKPGKAPKLLIYNAKSLASGVPSRFSGSGSGTDFTLTISSLQPEDFATYYCQHHYVSPWTFGGGTKLEIKGGGGSGGGGSGGGGSQVQLQESGPGLVKPSETLSLTCTVSGFSLTSYGVSWIRQPAGKGLEWIGVIWEDGSTNYHSALISRVTMSVDTSKNQFSLKLSSVTAADTAVYYCARPHYGSSYVGAMEYWGAGTTVTVSSATTTPAPRPPTPAPTIASQPLSLRPEACFMYVAAAAFVLLFFVGCGVLLSRKRRRQHGQLWFPEGFKVSEASKKKRREPLGEDSVGLKPLKNAMVSKLSQLQTELLAALLESGLSKEALLQALGEPGPYLLAGEGPLDKGESCGGGRGELAELPNGLGETRGSEDETDDDGEDFTPPILKELENLSPEEAAHQKAVVETLLQEDPWRVAKMVKSYLQQHNIPQREVVDTTGLNQSHLSQHLNKGTPMKTQKRAALYTWYVRKQREVAQQFTHAGQGGLIEEPTGDELPTKKGRRNRFKWGPASQQILFQAYERQKNPSKEERETLVEECNRAECIQRGVSPSQAQGLGSNLVTEVRVYNWFANRRKEEAFRHKLAMTCRDEFPTMVFPSGQISQASALAPAPPQVLPQAPAPAPAPAMVSALAQAPAPVPVLAPGPPQAVAPPAPKPTQAGEGTLSEALLQLQFDDEDLGALLGNSTDPAVFTDLASVDNSEFQQLLNQGIPVAPHTTEPMLMEYPEAITRLVTGAQRPPDPAPAPLGAPGLPNGLLSGDEDFSSIADMDFSALLSQISS

Reference: US20250250350A1
